Results on 14 sequences are retold here after the DeepSol protein solubility set.

A short description of this data set: soluble on expression in E. coli; label from the status in PepcDB or PDB records.
As for “MPVAHVALPVPLPRTFDYLLPEGMAVKAGCRVRVPFGKQQERIGVVVSVSDVSELPLNELKAVVEVLDSEPVFTHSVWRLLLWAADYYHHPIGDVLFHALPILLRQGRPAANAPMWYWFATEQGHAVDLNSLKRSPKQQQALAALRQGKIWRDQVATLEFNDAALQALRKKGLCDLASETPEFSDWRTNYAVSGERLRLNTEQATAVGAIHSAADTFSAWLLAGVTGSGKTEVYLSVLENVLAQGKQALVMVPEIGLTPQTIARFRERFNAPVEVLHSGLNDSERLSAWLKAKNGEAAIVIGTRSALFTPFKNLGVIVIDEEHDSSYKQQEGWRYHARDLAVYRAHSEQIPIILGSATPALETLCNVQQKKYRLLRLTRRAGNARPAIQHVLDLKGQKVQAGLAPALITRMRQHLQADNQVILFLNRRGFAPALLCHDCGWIAECPRCDHYYTLHQAQQHLRCHHCDSQRPVPRQCPSCGSTHLVPVGLGTEQLEQTLAPLFPGVPISRIDRDTTSRKGALEQQLAEVHRGGARILIGTQMLAKGHHFPDVTLVALLDVDGALFSADFRSAERFAQLYTQVAGRAGRAGKQGEVVLQTHHPEHPLLQTLLYKGYDAFAEQALAERRMMQLPPWTSHVIVRAEDHNNQHAPLFLQQLRNLILSSPLADDKLWVLGPVPALAPKRGGRWRWQILLQHPSRVRLQHIINGTLALINTIPDSRKVKWVLDVDPIEG”, the “soluble on expression in E. coli” value is listed as “not soluble”. Take “MPVLSKLARKMYSRLKSSLLNHFQKGANSSSNPSYNGLTKEEKKRLRHSLAECQLNDVYDPDSAHSSYQHSVSFVTTKPSSRHHQQTIDTSGHAPLAPQEVYLDETSSNSASTFYSDLLASSFSSAGGNSSFTCDYEDTNETSFIMSSGLPALSWNVQYIGSFPISGSYVDNLGRRIDSFQPTTSGGMQSVELSISVLGVKICCEKTVLMSHSLRRVTDISARPDTQNIGYVATEPVGRTYRRLCHVFHCQSLKEVSLKIHSVNVKLPGKSENRKSSTGVWALFAPIADHHIVTPVALFRLNLYNFKIGKNLQNNFEMWAIKIFKMFMGRNIFDQQDPEITIFKVSNSPAEEIENVLRNANQSQVLAAKQPKSAVSTSSMHPTNTASTMTEKRSASTVFLNRFLGKKGSQTVDESGQCKRKRRPVSAVFSSAIHRLSSSTSSVNPKRMSTIEPQAPTREQLLQLQNQMRCAASSPVPEEPRPTDLCAASTTTSTSSVASSSSSNGSSSSTDTSPVPPAPQTALVYDEKLGEWIYPIDQALMTQLDNCSYFVGQPTKDSMVYNLNTQPEGAFVIRYSESKSKCLALSMRVPCSHNPSGISHYLIIRNEQGFRLKLSATKKPFPTLQMMLTHHSVLESHLPCTLHFVQWQKTNFKQLAAMSTVERPLRTFNRHSTALTKIDENRNVTATSTPYRPSGRCGGGIDDFTTPKNRRTRNEINAMRRSHFFDDRQIVL”: the “soluble on expression in E. coli” value is listed as “not soluble”. For “MPVLVFGAVNVHDGDTVAVVHQEESANATAFLDFLRLLKERHPNRMIALVLDNARIHHARMVKDFLREEGQCFHFLYLPPYSPQLNPIERLWKWLKDTVITNAFHKDRHEILQAVQRLIHYIPKRPEDVLRRLECAV”, the “soluble on expression in E. coli” value is given as “not soluble”. In the case of “MPVMDRAAMRTMATLQPSCMRWLCTTPSILDAAKAGWPISWAATPDSPATVTIRQFQASTCCRKKTFDVVVNTDVLEHVPEAELDCVLRDFRKLSTNAIIIPHLAKATRILPNGENAHCTIKTPSEWAQVFKRHYAHVYELPHHSAVHALFLCGDQERDVTALRGILEQYVAAKNEVRHHLLPLGKRIEKAIRLIRGKDINRLEHHHHHH”, the “soluble on expression in E. coli” value is given as “soluble”. On to “MPVRYSGFDYDGCVGVTNLINIVAQNPKLAQRIRETSNYYTKEVALIASNRQSDRDDKRNARSNGNGSCFIQIQKLCTDLGMEFDPFLLADAYNLVPAGTSLHEATNPANGAKIQNGWLHDKSKASLVYAHMQRASSLEAREQIDYFFYDDREDILEGLYQFFSANPELIPSNVTMHLVKYACSRENVHTMDNYKIPVQGKGFTNPDYVKTIKAFGDKAIENARDVYDIDGKEINAAGVRQAKYNCNFEFEANKLQPMKFVNNFNSPAELIKAHEQAIEKIKLGAFELYKAKINVITTLSNEQKVFLIRAKAQQWNLLCDEGQWNNPIFTLQAIMAEKSDRFFLPQYAFTAKMLIKNYQEARENSKDGSRFWEQINAFIKSMNALKDPMRNAQSIFEVFKKNSYSVKAVDGFVKKVVEVMNALMDKYPQRSTTEMVACMRILESNLQKMVNFFSLVDRLITIYRGCTTAGLNFNKILTVVREALEEMKMITDSGDNYSTTLIDLDKVITAANNRLESLTYPKEYSTKNFHSQESYKVVGAYLCMQSQLIQKLDTKASTALAI”, for which the “soluble on expression in E. coli” value was “not soluble”. As for “MPWGWIEALLGHACPGCGGPLDLPALCGRCRAGLEAFSTGEMVYLGHYARVGPLVRALKYGRREALARALAEPLARAVAARGWRLQGVTAVPTLPHRLALRGYNPPEVLARALAKALGVPYRPVLFRRRYTPGQPTRGFKERRFLPGDLFGARVRVEGAWLLVDDVLTSGATFLRARGALLEAGAAHVYGAFLAVRDPRALGPYR”, the “soluble on expression in E. coli” value is “soluble”. For “MPYIALEDGFLRSFGTGRHFPPLSLVVDRLGIYYDATRESELECLLASSRTLLDGIEDAVPEAMELVRERRLSKYNHGGFLATGVPADGRRRVLVVDQTEGDMSVTLGCAEAATFEAMLAAARAENPGALICVKTHPEVAAGDKSGYLSRVTDDADTLALRHDMNPLALLEQMDRVYVVSSQMGFEALMLDKPVICFGMPWYAGWGVTDDRQRCERRGRARSVEELFAGAYFHYTRYLDPVLH”, the “soluble on expression in E. coli” value is reported as “not soluble”. As for “MPYLIIEHLEKISEWLLLEYRHTAQWWGDKLIFTNVKEPEERKILAEIGSVVAESVTKLPFDKSKLIILDPFAEEELKPEDIEEDSLIVVGGILGDFEFTGKTKEFITSKIEGAKARHIGSVQFSIDGASIIAKLISEGKRLEEIEYVESPTIKLDEFSEITLHYAVPKVNGKLLLTPGLIELQKKELGYMEEDVEDEELEKLFGGSLEHHHHHH”, the entry is “soluble”; as for “MQAEKLAYYPFTSEASAYVGNLGISLESLLNSRAYRAARARGIERVKEALEGEIKKSPVSGEAQVLSELLSYPFARMLVACVDDQLFTRRYALAEAKAAYTFLRNENPDFLLEFGDDFGISADSQDSYFSMHFTDYIRFSNSLKDPSWKLTNRQLRAGKIKITKEEFSRLLEEAVRERIEQSFPVPEIPPEVSSFCSPYAAEIKDKFEVQKKKFGSTDFGAVKPELFPPCIAYALANVQGGVNLAHSMRFAMTSFLLNVGMSVDEILNLFNISPDFNAEKTLYQIEHIAGATGNTYKPPACDTMRTYGNCVGKDRLCEKISHPLGYYEKKVFIKNKEGEEAQGKEQGKEKDDGKEKENGKESEVKKKKEKLEHHHHHH”, “soluble”; as for “MQCLQFDSINLIEHILPDVRFWLVPPSRTHHLHEHFHHISWQTEAIPQTESKPDKPWFALPQTSERQKPEHILVIGAGISGAATAHALASHGISVTVLEARKAAQAASGNRQGLLYAKISPHDTEQTELLLAGYGYTKRLLGHILPESETWGGNGIIHLNYSRTEQQRNHELGLQKHHNHLYRSITSAEAEKIAGIPLSVPYDHPSCGLYWQHGVWLNPPAFVRTLLNHPLIGLHEDTPLTDISHDGEKWIASTPNGTFTATHIIYCTGANSPYLPETNLAALPLRQIRGQTGLTPSTPFSEQLRCAVSGESYISPSWHGLHCYGASFIPNSSHTGWNEAEEASNRQALAHLNPALSESLFAANPNPQKHQGHAAIRCDSPDHLPLVGALGDIAAMRQTYTKLALDKNYRIDTPCPYLPNAYVNTAHGTRGLATAPICAAAIAAQILGLPHPFSQRLRHALHPNRTIIRAIVRRKDLTPLEHHHHHH”, “not soluble”. Turning to “MQDELFETEKIPPKNTKNTKNAPKKSFEEHVHSLERAIDRLNDPNLSLKDGMDLYKTAMQELFLAQKLLENAYLEHEKLQTPDQKA”, the “soluble on expression in E. coli” value is given as “not soluble”. With “MQEKDCIFCKIVRGEVPAKKVYEDDKVLAFHDINPVAPVHILIIPKKHIMGIQTLEPEDECLVGHMFYVARKIAEDLGIAPDENLNKGYRLVFNVGKDAGQSVFHLHLHLIGGREMSWPPG”, the “soluble on expression in E. coli” value is given as “soluble”.

Take “MQFEERLQQLVESDWSLDQSSPNVLVIVLGDTARKYVELGGLKEHVTTNTVAGHVASRERVSVVFLGRVKYLYMYLTRMQAQANGPQYSNVLVYGLWDLTATQDGPQQLRYLALCYGSASVCHLKLNSIQNRLLVACLPGYCDSGTILSDSCIVLHAIS”: the “soluble on expression in E. coli” value was “not soluble”.

Regarding “MQFHAVYQNNDTKANLDFALNISTINFATLQELQNSFDLQGSDLTAGLFYKYSVNKLTSGTNDLTTIAKTALGENIIQKQVSLTQSIIKPRLEAAKTQYKQDIIAPFAKERQAALAQHL”, the “soluble on expression in E. coli” value is listed as “not soluble”.
